Results on two molecules are retold here after patent US20150037348A1 (AbbVie / Abbott, published 2015).

Experiment [1] addresses T1, recombinant human IL-12 (rhIL-12) (human, UniProt P29459 23-219; P29460 23-328).
T1 construct: disulfide-linked p35/p40 heterodimer (p70); also called IL-12 p70; rec. human IL12
T1 sequence (looked up) 1: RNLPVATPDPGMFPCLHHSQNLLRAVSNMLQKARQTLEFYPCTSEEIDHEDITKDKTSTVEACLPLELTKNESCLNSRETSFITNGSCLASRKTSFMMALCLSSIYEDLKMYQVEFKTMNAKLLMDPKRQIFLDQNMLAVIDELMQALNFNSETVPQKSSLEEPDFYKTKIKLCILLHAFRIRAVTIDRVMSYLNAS
T1 sequence (looked up) 2: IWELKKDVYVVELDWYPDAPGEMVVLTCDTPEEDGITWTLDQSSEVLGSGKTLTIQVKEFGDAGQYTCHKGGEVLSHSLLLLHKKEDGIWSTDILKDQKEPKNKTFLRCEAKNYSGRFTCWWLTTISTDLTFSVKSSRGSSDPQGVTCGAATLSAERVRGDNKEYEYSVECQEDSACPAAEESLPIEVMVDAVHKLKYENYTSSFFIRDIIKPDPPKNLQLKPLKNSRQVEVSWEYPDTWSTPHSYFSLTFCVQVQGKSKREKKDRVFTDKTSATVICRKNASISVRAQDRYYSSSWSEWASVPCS
The experiment in a line: receptor binding assay, 125I-hIL-12 on PHA blasts. The method, then: PHA blast cells isolated as described above, were washed once and resuspended in binding buffer to a cell density of 2×10⁷ cells/ml. […] The cell pellet was examined for cell bound radioactivity using a gamma counter. […] Incubations were carried out in duplicate.

For the next experiment, the target named is T2, recombinant murine IL-12 (mouse, UniProt P43431 23-215; P43432 23-335).
T2 construct: rmIL12 of R&D Systems, Cat. No. 419-ML, in the BIAcore test; also called mouse IL-12; rmIL12
T2 sequence (looked up) 1: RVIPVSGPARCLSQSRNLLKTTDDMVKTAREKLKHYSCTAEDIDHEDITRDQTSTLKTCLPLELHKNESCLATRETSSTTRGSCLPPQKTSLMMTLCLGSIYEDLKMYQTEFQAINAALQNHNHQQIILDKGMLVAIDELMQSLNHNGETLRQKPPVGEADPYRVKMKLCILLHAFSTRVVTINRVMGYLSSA
T2 sequence (looked up) 2: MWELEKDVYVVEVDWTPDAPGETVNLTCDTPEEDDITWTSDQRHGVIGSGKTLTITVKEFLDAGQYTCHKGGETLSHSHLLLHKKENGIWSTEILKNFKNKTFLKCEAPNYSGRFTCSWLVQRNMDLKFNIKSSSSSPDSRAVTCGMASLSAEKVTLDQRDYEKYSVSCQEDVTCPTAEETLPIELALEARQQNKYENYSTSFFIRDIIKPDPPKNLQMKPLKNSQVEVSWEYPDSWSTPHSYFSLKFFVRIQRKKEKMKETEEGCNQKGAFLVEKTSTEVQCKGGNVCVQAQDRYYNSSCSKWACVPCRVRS
The experiment in a line: BIAcore, COS J695 captured via goat anti-human IgG, cytokine in solution. The method, then:
Before injection of the protein and immediately afterward, HBS buffer alone flowed through each flow cell. […] Cytokines were diluted in HBS running buffer and 50 μl aliquots were injected through the immobilized protein matrices at a flow rate of 5 μl/min. […] The net difference in baseline signal and signal after completion of cytokine injection was taken to represent the binding value of the particular sample. Biosensor matrices were regenerated using 100 mM HCl before injection of the next sample. To determine the dissociation constant (off-rate), association constant (on-rate), BIAcore kinetic evaluation software (version 2.1) was used.
Background: SPR reads the build-up and loss of mass on a sensor chip optically.

Experiment [2] has as its target T3, chimeric IL-12 (murine p35 subunit with the human IL-12 p40 subunit) (mouse; human, UniProt P43431 23-215; P29460 23-328).
T3 sequence (looked up) 1: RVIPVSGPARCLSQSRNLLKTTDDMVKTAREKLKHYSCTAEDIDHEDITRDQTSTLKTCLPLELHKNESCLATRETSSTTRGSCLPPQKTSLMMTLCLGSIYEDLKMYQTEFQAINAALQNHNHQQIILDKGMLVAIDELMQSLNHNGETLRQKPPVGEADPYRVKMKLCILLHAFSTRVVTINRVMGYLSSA
T3 sequence (looked up) 2: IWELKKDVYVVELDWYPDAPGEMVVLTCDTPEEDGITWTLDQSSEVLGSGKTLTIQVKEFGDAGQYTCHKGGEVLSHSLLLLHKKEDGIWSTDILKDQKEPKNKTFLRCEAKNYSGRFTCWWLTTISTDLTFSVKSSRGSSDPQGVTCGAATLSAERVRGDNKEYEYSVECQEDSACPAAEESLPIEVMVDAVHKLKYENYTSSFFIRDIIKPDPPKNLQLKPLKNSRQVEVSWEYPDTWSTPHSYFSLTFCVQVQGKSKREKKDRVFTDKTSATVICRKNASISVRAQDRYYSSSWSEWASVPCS
Kind of experiment: inhibition of IFN-γ production in mice given chimeric IL-12. The method, then:
The control hulgG1γ was given IP. at a dose of 0.05 mg/kg on days 0, 2, and 4. The mice were bled on day 5, and serum IFN-γ levels were determined by ELISA.

The target of the next experiment is T4, human IL-1α (human, UniProt P01583 113-271).
T4 sequence (looked up): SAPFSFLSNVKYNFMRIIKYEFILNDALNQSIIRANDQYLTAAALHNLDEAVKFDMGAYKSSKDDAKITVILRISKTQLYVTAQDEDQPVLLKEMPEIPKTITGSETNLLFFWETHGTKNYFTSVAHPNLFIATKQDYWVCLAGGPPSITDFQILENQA
The experiment in a line: competition ELISA: soluble cytokine against J695 (100 ng/ml) binding to immobilized human IL-12. The method, then:
(§1) The plates were washed 4 times and incubated for 1 h at room temperature with 100 μl mouse anti-human lambda-HRP (1:500 in PBS-T/BSA, Southern Biotech. Ass. Inc., Birmingham, Ala.). The plates were washed 4 times and developed with ABTS (Kirkegaard & Perry Lab, Gaithersburg, Md.) for 20-30 minutes in the dark. The OD₄₅₀ nm was read using a microplate reader (Molecular Devices, Menlo Park, Calif.).
(An ELISA detects its analyte on a solid surface through an enzyme-linked reagent.)

The next experiment concerns the target T5, human IFN-gamma (human, UniProt P01579 24-166, limits assumed).
T5 sequence (looked up): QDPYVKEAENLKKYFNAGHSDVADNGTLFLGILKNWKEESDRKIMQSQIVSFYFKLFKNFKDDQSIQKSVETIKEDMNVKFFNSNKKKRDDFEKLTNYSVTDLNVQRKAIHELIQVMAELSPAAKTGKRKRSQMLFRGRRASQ
The experiment is described as above. The method, then:
as §1

The next experiment concerns the target human IGF-I (human, UniProt P05019 49-118). Described as above. The protocol:
as §1

Another experiment addresses human IGF-II (human, UniProt P01344 25-91). Described as above. The protocol:
as §1

For another experiment, the target named is T6, human IL-11 (human, UniProt P20809 22-199).
T6 sequence (looked up): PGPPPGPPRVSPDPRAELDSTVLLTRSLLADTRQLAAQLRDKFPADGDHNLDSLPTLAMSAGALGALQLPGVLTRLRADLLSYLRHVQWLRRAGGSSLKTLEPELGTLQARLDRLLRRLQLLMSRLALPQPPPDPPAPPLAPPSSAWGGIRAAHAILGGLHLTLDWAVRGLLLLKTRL
The description is as above. The method, then: as §1

Another experiment addresses human LIF (human, UniProt P15018 23-202). The description is as above. The protocol: as §1

As a reminder, the IC50 is the point on the concentration scale where inhibition reaches its midpoint.

Chain of human LIF (P15018 23-202 limits assumed): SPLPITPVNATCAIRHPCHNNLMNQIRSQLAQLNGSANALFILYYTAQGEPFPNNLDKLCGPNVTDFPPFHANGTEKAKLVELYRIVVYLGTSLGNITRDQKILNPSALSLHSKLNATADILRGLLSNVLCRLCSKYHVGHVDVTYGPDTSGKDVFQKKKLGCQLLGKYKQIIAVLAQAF

B1: J695 (antibody, human IgG1, V domains shown)
VH: QVQLVESGGGVVQPGRSLRLSCAASGFTFSSYGMHWVRQAPGKGLEWVAFIRYDGSNKYYADSVKGRFTISRDNSKNTLYLQMNSLRAEDTAVYYCKTHGSHDNWGQGTMVTVSS
VL: QSVLTQPPSVSGAPGQRVTISCSGSRSNIGSNTVKWYQQLPGTAPKLLIYYNDQRPSGVPDRFSGSKSGTSASLAITGLQAEDEADYYCQSYDRYTHPALLFGTGTKVTVLG
notes: human IgG1 with lambda light chain
B1: in experiment [1], the IC50 came out at 0.05 nM. For the same molecule, the binding result in the experiment with recombinant murine IL-12 is listed as “no binding”.

B2: J695 (antibody, V domains shown)
VH: QVQLVESGGGVVQPGRSLRLSCAASGFTFSSYGMHWVRQAPGKGLEWVAFIRYDGSNKYYADSVKGRFTISRDNSKNTLYLQMNSLRAEDTAVYYCKTHGSHDNWGQGTMVTVSS
VL: QSVLTQPPSVSGAPGQRVTISCSGSRSNIGSNTVKWYQQLPGTAPKLLIYYNDQRPSGVPDRFSGSKSGTSASLAITGLQAEDEADYYCQSYDRYTHPALLFGTGTKVTVLG
notes: Human IgG1 with lambda light chain (detected with anti-human lambda); Made in CHO or COS cells
On to B2, for which the binding result is reported as “binds” in experiment [2]; “no binding (tested: 2 nM)” in the experiment with human IL-1α; “no binding (tested: 2 nM)” with human IFN-gamma; “no binding (tested: 2 nM)” with human IGF-I; “no binding (tested: 2 nM)” with human IGF-II; “no binding (tested: 2 nM)” with human IL-11. Moreover, in the experiment with human LIF, the binding result was “no binding (tested: 2 nM)”.
